The values below come from US20200148757A1 (KOREA ADVANCED INSTITUTE OF SCIENCE AND TECHNOLOGY, published 2020).

In assay [1] the target is T1, Cetuximab-VEGF-Grab.
T1 construct: Made in Freestyle293F cells and purified on Protein A; also called Cet-Grab; scFv-Cetuximab-VEGF-Grab
In words: BLI (BLItz), biotinylated P1GF on streptavidin biosensor, 1:1 model.
Protocol: (§1) Thereafter, to measure the dissociation rate (koff), each reaction product was allowed to react in a PBS buffer for 2 minutes. The final dissociation constant was calculated as a ratio of koff/kon. Sensorgrams were analyzed with the global fitting function using a 1:1 binding model (grouped by color and Rmax).

Assay [2] deals with T1, Cetuximab-VEGF-Grab. Kind of assay: BLI; EGFR ECD pre-bound to Cet-Grab, then P1GF (reverse order); EGFR ECD pre-bound to Cet-Grab. For orientation: Biolayer interferometry detects binding as a change in optical thickness at a sensor tip.
Assay [3] concerns the target T1, Cetuximab-VEGF-Grab. In words: BLI (BLItz), biotinylated VEGF-A on streptavidin biosensor, 1:1 model.
Protocol: as §1
Assay [4] deals with T1, Cetuximab-VEGF-Grab. In words: BLI; EGFR ECD pre-bound to Cet-Grab, then VEGF-A (reverse order); EGFR ECD pre-bound to Cet-Grab.

A word on the Kd: it is a measure of binding affinity in units of concentration. Lower therefore signals higher affinity.

B1: human P1GF (ligand)
chain: LPAVPPQQWALSAGNGSSEVEVVPFQEVWGRSYCRALERLVDVVSEYPSEVEHMFSPSCVSLLRCTGCCGDENLHCVPVETANVTMQLLKIRSGDRPSYVELTFSQHVRCECRPLREKMKPERCGDAVPRR
notes: also called PlGF; placental growth factor
On to B1, for which the Kd in the assay with Cetuximab-VEGF-Grab [1] came out at 1.59 nM; with Cetuximab-VEGF-Grab [2], 1.11 nM.

B2: human VEGF-A (ligand)
chain: APMAEGGGQNHHEVVKFMDVYQRSYCHPIETLVDIFQEYPDEIEYIFKPSCVPLMRCGGCCNDEGLECVPTEESNITMQIMRIKPHQGQHIGEMSFLQHNKCECRPKKDRARQENPCGPCSERRKHLFVQDPQTCKCSCKNTDSRCKARQLELNERTCRCDKPRR
notes: also called hVEGF-A
Consider B2, for which the Kd in the assay with Cetuximab-VEGF-Grab [3] is 1.04 nM; with Cetuximab-VEGF-Grab [4], 1.17 nM.
